Tests used:
[1] = biological target: Spindlin1/C11orf84 complex (human) (UniProt Q9BUA3); assay: ITC; 25 °C, MicroCal ITC200; 20 mM HEPES pH 7.5, 150 mM NaCl; 0.8 mM H3 peptide injected into 50 μM protein or complex in the sample cell
[2] = biological target: Spindlin1 W62A/W72A/C11orf84 complex (human) (UniProt Q9Y657); assay: ITC; 25 °C, MicroCal ITC200; 20 mM HEPES pH 7.5, 150 mM NaCl; 50 μM Spindlin1 or Spindlin1/C11orf84 complex in the cell, 0.8 mM peptide injected
Target sequence in this assay (Q9Y657 50-262 W62A/W72A, chain 1 of 2): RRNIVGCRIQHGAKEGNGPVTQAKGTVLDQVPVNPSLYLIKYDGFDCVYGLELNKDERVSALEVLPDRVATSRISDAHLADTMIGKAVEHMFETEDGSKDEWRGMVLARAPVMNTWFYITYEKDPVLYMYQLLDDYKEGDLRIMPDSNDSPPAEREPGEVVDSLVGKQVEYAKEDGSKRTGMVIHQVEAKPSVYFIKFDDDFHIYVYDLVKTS
Target sequence in this assay (Q9BUA3 whole entry, chain 2 of 2, further chain): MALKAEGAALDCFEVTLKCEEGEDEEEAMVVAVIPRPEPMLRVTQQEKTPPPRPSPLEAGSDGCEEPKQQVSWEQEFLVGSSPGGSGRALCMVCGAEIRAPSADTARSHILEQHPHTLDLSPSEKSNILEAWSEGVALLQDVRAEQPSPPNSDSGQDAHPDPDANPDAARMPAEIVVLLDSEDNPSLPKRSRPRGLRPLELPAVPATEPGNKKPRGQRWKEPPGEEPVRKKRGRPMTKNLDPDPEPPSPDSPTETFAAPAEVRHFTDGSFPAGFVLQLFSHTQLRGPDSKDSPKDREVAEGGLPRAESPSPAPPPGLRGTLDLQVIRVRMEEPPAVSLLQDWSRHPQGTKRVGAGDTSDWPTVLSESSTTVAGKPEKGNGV

[3] = biological target: Spindlin1 W62A/C11orf84 complex (human) (UniProt Q9Y657); assay: as above
Target sequence in this assay (Q9Y657 50-262 W62A, chain 1 of 2): as the sequence (Q9Y657 50-262 W62A/W72A, chain 1 of 2) above, with A23W counted along it
Target sequence in this assay (Q9BUA3 whole entry, chain 2 of 2, further chain): as the sequence (Q9BUA3 whole entry, chain 2 of 2, further chain) above

[4] = biological target: Spindlin1 (aa: 50–262) (human) (UniProt Q9Y657); assay: as above
[5] = biological target: Spindlin1 Y91A/C11orf84 complex (human) (UniProt Q9Y657); assay: as above
Target sequence in this assay (Q9Y657 50-262 Y91A, chain 1 of 2): as the sequence (Q9Y657 50-262 W62A/W72A, chain 1 of 2) above, with A13W, A23W, Y42A counted along it
Target sequence in this assay (Q9BUA3 whole entry, chain 2 of 2, further chain): as the sequence (Q9BUA3 whole entry, chain 2 of 2, further chain) above

[6] = biological target: Spindlin1 W72A/C11orf84 complex (human) (UniProt Q9Y657); assay: as above
Target sequence in this assay (Q9Y657 50-262 W72A, chain 1 of 2): as the sequence (Q9Y657 50-262 W62A/W72A, chain 1 of 2) above, with A13W counted along it
Target sequence in this assay (Q9BUA3 whole entry, chain 2 of 2, further chain): as the sequence (Q9BUA3 whole entry, chain 2 of 2, further chain) above

[7] = biological target: Spindlin1 Y98A/C11orf84 complex (human) (UniProt Q9Y657); assay: as above
Target sequence in this assay (Q9Y657 50-262 Y98A, chain 1 of 2): as the sequence (Q9Y657 50-262 W62A/W72A, chain 1 of 2) above, with A13W, A23W, Y49A counted along it
Target sequence in this assay (Q9BUA3 whole entry, chain 2 of 2, further chain): as the sequence (Q9BUA3 whole entry, chain 2 of 2, further chain) above

[8] = biological target: Spindlin1/C11orf84 complex (human) (UniProt Q9Y657); assay: as above
[9] = biological target: Spindlin1 F141A/C11orf84 complex (human) (UniProt Q9Y657); assay: as above
Target sequence in this assay (Q9Y657 50-262 F141A, chain 1 of 2): as the sequence (Q9Y657 50-262 W62A/W72A, chain 1 of 2) above, with A13W, A23W, F92A counted along it
Target sequence in this assay (Q9BUA3 whole entry, chain 2 of 2, further chain): as the sequence (Q9BUA3 whole entry, chain 2 of 2, further chain) above

[10] = biological target: Spindlin1 W62A/W72A/C11orf84 complex (human) (UniProt Q9Y657); assay: ITC; 25 °C, MicroCal ITC200; 20 mM HEPES pH 7.5, 150 mM NaCl; 0.8 mM H3 peptide injected into 50 μM protein or complex in the sample cell
[11] = biological target: Spindlin1 W62A/C11orf84 complex (human) (UniProt Q9Y657); assay: as above
[12] = biological target: Spindlin1 Y91A/C11orf84 complex (human) (UniProt Q9Y657); assay: as above
[13] = biological target: Spindlin1 W72A/C11orf84 complex (human) (UniProt Q9Y657); assay: as above
[14] = biological target: Spindlin1 Y98A/C11orf84 complex (human) (UniProt Q9Y657); assay: as above
[15] = biological target: Spindlin1 D173A/C11orf84 complex (human) (UniProt Q9Y657); assay: as above
[16] = biological target: Spindlin1 F141A/C11orf84 complex (human) (UniProt Q9Y657); assay: as above

Sequence of Spindlin1 (aa: 50–262) (human) (Q9Y657 50-262): as the sequence (Q9Y657 50-262 W62A/W72A, chain 1 of 2) above, with A13W, A23W counted along it

A Kd [1] of 213 nM and a stoichiometry N [1] of 1.01 were found for H3K4me3 peptide, H3 (1-12) in this work.

A Kd [1] of 42 nM and a stoichiometry N [1] of 1.01 were found for H3K4me3K9me2 peptide, H3 (1-12) in this work.

A fold reduction in binding affinity against wild type [2] of 10 fold, a fold reduction in binding affinity against wild type [3] of 3 fold and a Kd [4] of 46 nM were found for H3K4me3K9me3 peptide in this work. The fold reduction in binding affinity against wild type [5] was 3 fold, the fold reduction in binding affinity against wild type [6] was 3 fold and the fold reduction in binding affinity against wild type [7] was 3 fold. For the same substance, the Kd [8] was 20 nM and the fold reduction in binding affinity against wild type [9] was 40 fold.

A stoichiometry N [10] of 1, a stoichiometry N [11] of 1.06 and a stoichiometry N [12] of 1.07 were found for H3K4me3K9me3 peptide, H3 (1-12) in this work. The stoichiometry N [13] was 1.07, the stoichiometry N [1] was 1.02 and the stoichiometry N [14] was 1.07. It also gave a stoichiometry N [15] of 1.04 and a stoichiometry N [16] of 1.03.

A Kd [1] of 82 nM and a stoichiometry N [1] of 1.04 were found for H3K4me3R8me2a peptide, H3 (1-12) in this work.

A Kd [1] of 2880 nM and a stoichiometry N [1] of 1.02 were found for H3K9me3 peptide, H3 (1-12) in this work.

— article PMC7878818
